From PMC7367873, “Dissecting the sequence determinants for dephosphorylation by the catalytic subunits of phosphatases PP1 and PP2A” (Nature Communications, 2020)

Assays:
[1] = system: GFP-14-3-3β; assay: GFP-14-3-3β co-IP with LC-MS/MS, untreated GFP-14-3-3β versus GFP control (14-3-3 interactome); type: binding, human; settings: for Difference (log2), untreated vs GFP: LFQ intensities, 3 replicates each
[2] = system: GFP-14-3-3β and its binding proteins; assay: GFP-14-3-3β co-IP with LC-MS/MS label-free quantification, untreated versus PP1c-treated; set-up: species or system human; settings: for Difference (log2), PP1 vs untreated: LFQ intensities, 3 replicates each

| Molecule | Difference (log2), untreated vs GFP [1] [log2] | Difference (log2), PP1 vs untreated [2] [log2] | Difference ([1]; UntrtedvsGFP, Perseus raw output, LFQ intensity difference) | Difference ([2]; GFP-14-3-3β co-IP, PP1vsUntrted, Perseus raw output, LFQ intensity difference) |
| --- | --- | --- | --- | --- |
| SSBP1 (protein, UniProt Q04837 17-148, looked up) Single-stranded DNA-binding …: ESETTTSLVLERSLNRVHLLGRVGQDPVLRQVEGKNPVTIFSLATNEMWRSGDSEVYQLGDVSQKTTWHRISVFRPGLRDVAYQYVKKGSRIYLEGKIDYGEYMDKNNVRRQATTIIADNIIFLSDQTKEKE | -1.1951 | 0.4442 | – | – |
| TUBA1C (protein, UniProt Q9BQE3 1-449, looked up) Tubulin alpha-1C chain: MRECISIHVGQAGVQIGNACWELYCLEHGIQPDGQMPSDKTIGGGDDSFNTFFSETGAGKHVPRAVFVDLEPTVIDEVRTGTYRQLFHPEQLITGKEDAANNYARGHYTIGKEIIDLVLDRIRKLADQCTGLQGFLVFHSFGGGTGSGFTSLLMERLSVDYGKKSKLEFSIYPAPQVSTAVVEPYNSILTTHTTLEHSDCAFMVDNEAIYDICRRNLDIERPTYTNLNRLISQIVSSITASLRFDGALNVDLTEFQTNLVPYPRIHFPLATYAPVISAEKAYHEQLTVAEITNACFEPANQMVKCDPRHGKYMACCLLYRGDVVPKDVNAAIATIKTKRTIQFVDWCPTGFKVGINYQPPTVVPGGDLAKVQRAVCMLSNTTAVAEAWARLDHKFDLMYAKRAFVHWYVGEGMEEGEFSEAREDMAALEKDYEEVGADSADGEDEGEEY | 0.0777 | 0.444 | – | – |
| IMMT (protein, UniProt Q16891 34-758, looked up) MICOS complex subunit MIC60: STSGSSGLTTGKIAGAGLLFVGGGIGGTILYAKWDSHFRESVEKTIPYSDKLFEMVLGPAAYNVPLPKKSIQSGPLKISSVSEVMKESKQPASQLQKQKGDTPASATAPTEAAQIISAAGDTLSVPAPAVQPEESLKTDHPEIGEGKPTPALSEEASSSSIRERPPEEVAARLAQQEKQEQVKIESLAKSLEDALRQTASVTLQAIAAQNAAVQAVNAHSNILKAAMDNSEIAGEKKSAQWRTVEGALKERRKAVDEAADALLKAKEELEKMKSVIENAKKKEVAGAKPHITAAEGKLHNMIVDLDNVVKKVQAAQSEAKVVSQYHELVVQARDDFKRELDSITPEVLPGWKGMSVSDLADKLSTDDLNSLIAHAHRRIDQLNRELAEQKATEKQHITLALEKQKLEEKRAFDSAVAKALEHHRSEIQAEQDRKIEEVRDAMENEMRTQLRRQAAAHTDHLRDVLRVQEQELKSEFEQNLSEKLSEQELQFRRLSQEQVDNFTLDINTAYARLRGIEQAVQSHAVAEEEARKAHQLWLSVEALKYSMKTSSAETPTIPLGSAVEAIKANCSDNEFTQALTAAIPPESLTRGVYSEETLRARFYAVQKLARRVAMIDETRNSLYQYFLSYLQSLLLFPPQQLKPPPELCPEDINTFKLLSYASYCIEHGDLELAAKFVNQLKGESRRVAQDWLKEARMTLETKQIVEILTAYASAVGIGTTQVQPE | 0.387 | 0.4434 | – | – |
| MAP4K4 (protein, UniProt O95819 2-1239, looked up) Mitogen-activated protein …: ANDSPAKSLVDIDLSSLRDPAGIFELVEVVGNGTYGQVYKGRHVKTGQLAAIKVMDVTEDEEEEIKLEINMLKKYSHHRNIATYYGAFIKKSPPGHDDQLWLVMEFCGAGSITDLVKNTKGNTLKEDWIAYISREILRGLAHLHIHHVIHRDIKGQNVLLTENAEVKLVDFGVSAQLDRTVGRRNTFIGTPYWMAPEVIACDENPDATYDYRSDLWSCGITAIEMAEGAPPLCDMHPMRALFLIPRNPPPRLKSKKWSKKFFSFIEGCLVKNYMQRPSTEQLLKHPFIRDQPNERQVRIQLKDHIDRTRKKRGEKDETEYEYSGSEEEEEEVPEQEGEPSSIVNVPGESTLRRDFLRLQQENKERSEALRRQQLLQEQQLREQEEYKRQLLAERQKRIEQQKEQRRRLEEQQRREREARRQQEREQRRREQEEKRRLEELERRRKEEEERRRAEEEKRRVEREQEYIRRQLEEEQRHLEVLQQQLLQEQAMLLECRWREMEEHRQAERLQRQLQQEQAYLLSLQHDHRRPHPQHSQQPPPPQQERSKPSFHAPEPKAHYEPADRAREVEDRFRKTNHSSPEAQSKQTGRVLEPPVPSRSESFSNGNSESVHPALQRPAEPQVPVRTTSRSPVLSRRDSPLQGSGQQNSQAGQRNSTSIEPRLLWERVEKLVPRPGSGSSSGSSNSGSQPGSHPGSQSGSGERFRVRSSSKSEGSPSQRLENAVKKPEDKKEVFRPLKPADLTALAKELRAVEDVRPPHKVTDYSSSSEESGTTDEEDDDVEQEGADESTSGPEDTRAASSLNLSNGETESVKTMIVHDDVESEPAMTPSKEGTLIVRQTQSASSTLQKHKSSSSFTPFIDPRLLQISPSSGTTVTSVVGFSCDGMRPEAIRQDPTRKGSVVNVNPTNTRPQSDTPEIRKYKKRFNSEILCAALWGVNLLVGTESGLMLLDRSGQGKVYPLINRRRFQQMDVLEGLNVLVTISGKKDKLRVYYLSWLRNKILHNDPEVEKKQGWTTVGDLEGCVHYKVVKYERIKFLVIALKSSVEVYAWAPKPYHKFMAFKSFGELVHKPLLVDLTVEEGQRLKVIYGSCAGFHAVDVDSGSVYDIYLPTHIQCSIKPHAIIILPNTDGMELLVCYEDEGVYVNTYGRITKDVVLQWGEMPTSVAYIRSNQTMGWGEKAIEIRSVETGHLDGVFMHKRAQRLKFLCERNDKVFFASVRSGGSSQVYFMTLGRTSLLSW | 0.6698 | 0.4439 | – | – |
| MYO1C (protein, UniProt O00159 1-1063, looked up) Unconventional myosin-Ic: MALQVELVPTGEIIRVVHPHRPCKLALGSDGVRVTMESALTARDRVGVQDFVLLENFTSEAAFIENLRRRFRENLIYTYIGPVLVSVNPYRDLQIYSRQHMERYRGVSFYEVPPHLFAVADTVYRALRTERRDQAVMISGESGAGKTEATKRLLQFYAETCPAPERGGAVRDRLLQSNPVLEAFGNAKTLRNDNSSRFGKYMDVQFDFKGAPVGGHILSYLLEKSRVVHQNHGERNFHIFYQLLEGGEEETLRRLGLERNPQSYLYLVKGQCAKVSSINDKSDWKVVRKALTVIDFTEDEVEDLLSIVASVLHLGNIHFAANEESNAQVTTENQLKYLTRLLSVEGSTLREALTHRKIIAKGEELLSPLNLEQAAYARDALAKAVYSRTFTWLVGKINRSLASKDVESPSWRSTTVLGLLDIYGFEVFQHNSFEQFCINYCNEKLQQLFIELTLKSEQEEYEAEGIAWEPVQYFNNKIICDLVEEKFKGIISILDEECLRPGEATDLTFLEKLEDTVKHHPHFLTHKLADQRTRKSLGRGEFRLLHYAGEVTYSVTGFLDKNNDLLFRNLKETMCSSKNPIMSQCFDRSELSDKKRPETVATQFKMSLLQLVEILQSKEPAYVRCIKPNDAKQPGRFDEVLIRHQVKYLGLLENLRVRRAGFAYRRKYEAFLQRYKSLCPETWPTWAGRPQDGVAVLVRHLGYKPEEYKMGRTKIFIRFPKTLFATEDALEVRRQSLATKIQAAWRGFHWRQKFLRVKRSAICIQSWWRGTLGRRKAAKRKWAAQTIRRLIRGFVLRHAPRCPENAFFLDHVRTSFLLNLRRQLPQNVLDTSWPTPPPALREASELLRELCIKNMVWKYCRSISPEWKQQLQQKAVASEIFKGKKDNYPQSVPRLFISTRLGTDEISPRVLQALGSEPIQYAVPVVKYDRKGYKPRSRQLLLTPNAVVIVEDAKVKQRIDYANLTGISVSSLSDSLFVLHVQRADNKQKGDVVLQSDHVIETLTKTALSANRVNSININQGSITFAGGPGRDGTIDFTPGSELLITKAKNGHLAVVAPRLNSR | -0.5566 | 0.4615 | -0.5566 | 0.4615 |
| ATP5J2 (protein, UniProt P56134 2-94, looked up) ATP synthase F(0) complex …: ASVGECPAPVPVKDKKLLEVKLGELPSWILMRDFSPSGIFGAFQRGYYRYYNKYINVKKGSISGITMVLACYVLFSYSFSYKHLKHERLRKYH | -0.05352 | 0.4378 | – | – |
